Laboratory results: publication PMC2665095 (The Journal of Biological Chemistry, 2009)

How the values were obtained:
[1] = target: T1, PBS3 (AtGH3.12; His-PBS3) (Arabidopsis thaliana, UniProt Q9LYU4); experiment: HPLC of pABA-Glu formation; assay type: biochemical
T1 sequence (Q9LYU4 1-575): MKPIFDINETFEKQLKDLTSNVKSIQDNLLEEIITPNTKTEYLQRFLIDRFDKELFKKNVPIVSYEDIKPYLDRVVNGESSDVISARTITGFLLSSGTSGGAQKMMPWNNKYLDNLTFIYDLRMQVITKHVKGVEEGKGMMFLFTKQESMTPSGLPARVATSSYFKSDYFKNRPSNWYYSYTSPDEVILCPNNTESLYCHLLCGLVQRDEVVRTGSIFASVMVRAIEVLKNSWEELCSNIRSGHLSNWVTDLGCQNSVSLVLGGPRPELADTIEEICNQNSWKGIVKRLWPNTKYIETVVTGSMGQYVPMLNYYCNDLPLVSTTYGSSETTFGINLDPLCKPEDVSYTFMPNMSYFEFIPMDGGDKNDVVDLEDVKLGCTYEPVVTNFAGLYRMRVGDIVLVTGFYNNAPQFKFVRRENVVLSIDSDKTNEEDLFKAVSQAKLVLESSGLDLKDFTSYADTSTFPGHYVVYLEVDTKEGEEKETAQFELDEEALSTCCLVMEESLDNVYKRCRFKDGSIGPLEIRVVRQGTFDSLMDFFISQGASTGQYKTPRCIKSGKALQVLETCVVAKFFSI

[2] = target: T1, PBS3 (AtGH3.12; His-PBS3); experiment: coupled adenylation assay; assay type: biochemical; settings: 150 μM pABA, 5 mM ATP, 5 mM MgCl2, pH 7.4
[3] = substrate: C=C(O[C@H]1C=CC=C(C(=O)O)[C@@H]1O)C(=O)O; experiment: coupled spectrophotometric assay; assay type: biochemical, Pseudomonas aeruginosa; settings: modified ICS assay conditions (100 mM Tris, pH 7.7)
purified protein [4] = substrate: Nc1ncnc2c1ncn2[C@@H]1O[C@H](COP(=O)(O)OP(=O)(O)OP(=O)(O)O)[C@@H](O)[C@H]1O; experiment: purified protein; settings: with 10 mM 4-HBA, Mg2+, pH 7.4, 30 °C
purified protein [5] = substrate: Nc1ccc(C(=O)O)cc1; experiment: purified protein; settings: 10 mM Glu, 5 mM ATP, 5 mM MgCl2, pH 8.5
purified protein [6] = substrate: O=C(O)c1ccccc1; experiment: purified protein; settings: 10 mM Glu, 5 mM ATP, 5 mM MgCl2, pH 8.5
purified protein [7] = substrate: O=C(O)c1ccc(O)cc1; experiment: purified protein; settings: 10 mM Glu, 5 mM ATP, 5 mM MgCl2, pH 8.5

Molecule: O=C(O)c1ccccc1O [salicylate]
- IC50 [1]: ~15 µM

Molecule: O=C(O)c1cc(Cl)nc(Cl)c1 [INA]
- Fractional inhibition (300 μM) [2]: 0.70 fraction

B1: PchB (isochorismate pyruvate lyase) (Pseudomonas aeruginosa PAO1) (protein)
chain: MKTPEDCTGLADIREAIDRIDLDIVQALGRRMDYVKAASRFKASEAAIPAPERVAAMLPERARWAEENGLDAPFVEGLFAQIIHWYIAEQIKYWRQTRGAA
- Km [3]: 60 µM

B2: PBS3 (AtGH3.12; His-PBS3) (Arabidopsis thaliana) (protein)
chain: T1 sequence (Q9LYU4 1-575)
- Km (purified protein [4]): 791 µM
- Km (purified protein [5]): 153 µM
- kcat (purified protein [5]): 0.0457 s⁻¹
- kcat/Km (purified protein [5]): 298 M⁻¹ s⁻¹
- Km (purified protein [6]): 867 µM
- kcat (purified protein [6]): 0.066 s⁻¹
- kcat/Km (purified protein [6]): 76.7 M⁻¹ s⁻¹
- Km (purified protein [7]): 459 µM
- kcat (purified protein [7]): 0.339 s⁻¹
- kcat/Km (purified protein [7]): 740 M⁻¹ s⁻¹
